Results reported in patent US20240301064A1 (published 2024).
Changes are numbered by the printed parent chain.

Legend:
human PD-1 [1] = target: T1, human PD-1 (human, UniProt Q15116 25-167, limits assumed); test: BLI, antibody on AHC tip
T1 construct: also called huPD-1

[2] = target: PD-1 on PD-1 reporter Jurkat cells; test: cell-based or functional assay
Insulin = target: T2, Insulin; test: ELISA on coated insulin, 100 nM antibody
T2 construct: polyreactivity antigen

human PD-1 [3] = target: T1, human PD-1; test: ELISA on coated huPD-1
Experimental: Plates were coated with 2 μg/mL huPD-1 in 1×PBS at 4° C. overnight. Plates were blocked with 1×PBS with 1% BSA. Antibodies were tested in duplicate for binding with a 3-fold, dilution series from 300 nM to 0.4 nM. Signal is background subtracted for coated wells with 2° antibody only. […] PD-1 agonists comprising germline mutations bind to human PD-1.

human PD-1 [4] = target: T1, human PD-1; test: BLI, antibody on AHC tip, soluble PD-1

T1 sequence (Q15116 25-167 limits assumed): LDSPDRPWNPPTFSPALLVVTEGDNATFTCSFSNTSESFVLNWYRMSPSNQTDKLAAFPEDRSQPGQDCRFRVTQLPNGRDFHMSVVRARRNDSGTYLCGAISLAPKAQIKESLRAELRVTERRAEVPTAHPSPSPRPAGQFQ
T2 sequence (P01308 25-54, chain 1 of 2): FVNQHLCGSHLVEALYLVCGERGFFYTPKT
T2 sequence (P01308 90-110, chain 2 of 2): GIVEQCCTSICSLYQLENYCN

B1: PMAB137 (bispecific antibody, human IgG1, kappa)
heavy: EVQLLESGGGLVQPGGSLRLSCAASGFTFSNSAMSWVRQAPGKGLEWVSGITISGGSTYYADSVKGRFTISRDNSKNTLYLQMNSLRAEDTAVYYCARGRGGSGWLDYWGQGTLVTVSSASTKGPSVFPLAPSSKSTSGGTAALGCLVKDYFPEPVTVSWNSGALTSGVHTFPAVLQSSGLYSLSSVVTVPSSSLGTQTYICNVNHKPSNTKVDKKVEPKSCDKTHTCPPCPAPEAAGAPSVFLFPPKPKDTLMISRTPEVTCVVVDVSHEDPEVKFNWYVDGVEVHNAKTKPREEQYNSTYRVVSVLTVLHQDWLNGKEYKCKVSNKALPAPIEKTISKAKGQPREPQVYTLPPSREEMTKNQVSLTCLVKGFYPSDIAVEWESNGQPENNYKTTPPVLDSDGSFFLYSKLTVDKSRWQQGNVFSCSVMHEALHNHYTQKSLSLSPGGGGGSGGGGSGGGGSEVQLLESGGGLVQPGGSLRLSCAASGFTFSDFWMHWVRQAPGKGLEWISYISGDSGYTNYADSVKGRFTISRDNSKNTLYLQMNSLRAEDTAVYYCARDRPYYYYMDVWGKGTTVTVSSGGGGSGGGGSGGGGSGGGGSDIQMTQSPSSLSASVGDRVTITCRASQSVSRSLAWYQQKPGKAPKLLIYAASSLQSGVPSRFSGSGSGTDFTLTISSLQPEDFATYYCQQYKSYPVTFGQGTKVEIK
light: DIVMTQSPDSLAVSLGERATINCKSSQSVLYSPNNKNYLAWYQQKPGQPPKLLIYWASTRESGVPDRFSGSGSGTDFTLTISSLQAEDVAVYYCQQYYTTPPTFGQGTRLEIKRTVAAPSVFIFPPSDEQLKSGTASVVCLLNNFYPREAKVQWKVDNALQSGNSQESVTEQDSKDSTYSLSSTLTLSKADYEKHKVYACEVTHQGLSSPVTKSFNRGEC
Question: Does B1 bind (human PD-1 [1])?
Answer: no binding (tested: 1000 nM)

B2: PMAB144 (bispecific antibody, human IgG1, kappa)
heavy: B1 heavy with A33D
light: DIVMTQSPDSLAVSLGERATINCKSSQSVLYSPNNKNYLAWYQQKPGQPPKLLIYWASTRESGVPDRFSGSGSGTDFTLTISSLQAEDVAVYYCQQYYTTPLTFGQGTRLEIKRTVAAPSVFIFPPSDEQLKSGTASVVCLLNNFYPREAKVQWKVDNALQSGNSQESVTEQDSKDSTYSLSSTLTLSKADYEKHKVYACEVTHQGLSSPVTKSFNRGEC
Question: Does B2 bind (human PD-1 [1])?
Answer: no binding (tested: 1000 nM)

B3: PMAB145 (bispecific antibody, human IgG1, kappa)
heavy: B1 heavy with A33D
light: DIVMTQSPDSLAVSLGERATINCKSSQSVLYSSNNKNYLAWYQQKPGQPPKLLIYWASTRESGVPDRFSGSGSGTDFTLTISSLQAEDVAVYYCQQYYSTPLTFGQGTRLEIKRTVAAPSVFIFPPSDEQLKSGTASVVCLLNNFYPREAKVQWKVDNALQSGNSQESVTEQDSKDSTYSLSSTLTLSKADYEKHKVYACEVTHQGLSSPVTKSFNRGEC
Question: Does B3 bind (human PD-1 [1])?
Answer: no binding (tested: 1000 nM)

B4: PMAB179 (bispecific antibody, human IgG1, kappa)
heavy: B1 heavy with N31S, S32Y, A33D, G50A, T52S
light: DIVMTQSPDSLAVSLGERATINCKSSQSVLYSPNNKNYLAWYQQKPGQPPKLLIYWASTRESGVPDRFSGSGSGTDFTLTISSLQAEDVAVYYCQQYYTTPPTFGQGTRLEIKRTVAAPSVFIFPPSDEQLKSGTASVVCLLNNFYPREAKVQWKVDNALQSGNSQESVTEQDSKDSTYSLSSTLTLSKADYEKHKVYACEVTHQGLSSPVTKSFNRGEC
Question: Does B4 bind (human PD-1 [1])?
Answer: no binding (tested: 1000 nM)

B5: PMAB182 (bispecific antibody, human IgG1, kappa)
heavy: B1 heavy with N31S, S32Y, T52S, I53G
light: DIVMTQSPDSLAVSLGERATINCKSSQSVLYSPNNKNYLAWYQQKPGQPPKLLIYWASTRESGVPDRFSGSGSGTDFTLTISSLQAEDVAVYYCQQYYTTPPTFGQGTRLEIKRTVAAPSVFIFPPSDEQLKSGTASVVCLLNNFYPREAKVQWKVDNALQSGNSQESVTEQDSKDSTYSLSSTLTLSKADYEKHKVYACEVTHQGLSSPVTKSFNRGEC
Question: Does B5 bind (human PD-1 [1])?
Answer: no binding (tested: 1000 nM)

B6: PMAB184 (bispecific antibody, human IgG1, kappa)
heavy: B1 heavy with N31S, S32Y, A33D, G50A, T52S, I53G
light: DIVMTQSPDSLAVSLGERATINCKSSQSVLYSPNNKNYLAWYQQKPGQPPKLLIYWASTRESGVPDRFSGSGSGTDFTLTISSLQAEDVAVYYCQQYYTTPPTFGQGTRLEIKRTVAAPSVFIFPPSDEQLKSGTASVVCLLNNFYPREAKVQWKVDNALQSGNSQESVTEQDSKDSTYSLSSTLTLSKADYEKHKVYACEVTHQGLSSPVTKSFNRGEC
Question: Does B6 bind (human PD-1 [1])?
Answer: no binding (tested: 1000 nM)

B7: PMAB61 (bispecific antibody, human IgG1, kappa)
heavy: EVQLVQSGAEVKKPGASVKVSCKASGYSFTSYYMHWVRQAPGQGLEWMGIINPSGGSTSYAQKFQGRVTMTRDTSTSTVYMELSSLRSEDTAVYYCASGWVYWGQGTLVTVSSASTKGPSVFPLAPSSKSTSGGTAALGCLVKDYFPEPVTVSWNSGALTSGVHTFPAVLQSSGLYSLSSVVTVPSSSLGTQTYICNVNHKPSNTKVDKKVEPKSCDKTHTCPPCPAPEAAGAPSVFLFPPKPKDTLMISRTPEVTCVVVDVSHEDPEVKFNWYVDGVEVHNAKTKPREEQYNSTYRVVSVLTVLHQDWLNGKEYKCKVSNKALPAPIEKTISKAKGQPREPQVYTLPPSREEMTKNQVSLTCLVKGFYPSDIAVEWESNGQPENNYKTTPPVLDSDGSFFLYSKLTVDKSRWQQGNVFSCSVMHEALHNHYTQKSLSLSPGGGGGSGGGGSGGGGSEVQLLESGGGLVQPGGSLRLSCAASGFTFSSYWMHWVRQAPGKGLEWVSYISGSGGYTNYADSVKGRFTISRDNSKNTLYLQMNSLRAEDTAVYYCARDRPYYYDMDVWGKGTTVTVSSGGGGSGGGGSGGGGSGGGGSDIQMTQSPSSLSASVGDRVTITCRASQSISSSLAWYQQKPGKAPKLLIYAASSLQSGVPSRFSGSGSGTDFTLTISSLQPEDFATYYCQQYKSYPVTFGQGTKVEIK
light: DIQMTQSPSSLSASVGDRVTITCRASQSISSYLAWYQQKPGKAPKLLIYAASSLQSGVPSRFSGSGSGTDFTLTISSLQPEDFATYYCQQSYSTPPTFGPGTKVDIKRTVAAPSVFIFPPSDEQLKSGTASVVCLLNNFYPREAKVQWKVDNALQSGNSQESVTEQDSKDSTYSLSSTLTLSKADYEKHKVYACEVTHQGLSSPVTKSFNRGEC
Question: How did the “PD-1 reporter Jurkat cells on test-article-loaded MAdCAM-expressing CHO cells; EC50” value [2] turn out when B7 was run?
Answer: 3.02 nM

Question: What about the “SHP-2 recruitment, Ig-tethered test article, PD-1 reporter Jurkat cells; EC50 (second experiment)” value [2] of the same binder?
Answer: 4.45 nM

B8: MIAB133 (antibody, human IgG1, kappa)
heavy: EVQLLESGGGLVQPGGSLRLSCAASGFTFSSFWMHWVRQAPGKGLEWISYISGDSGYTNYADSVKGRFTISRDNSKNTLYLQMNSLRAEDTAVYYCARDRPYYYYMDVWGKGTTVTVSSASTKGPSVFPLAPSSKSTSGGTAALGCLVKDYFPEPVTVSWNSGALTSGVHTFPAVLQSSGLYSLSSVVTVPSSSLGTQTYICNVNHKPSNTKVDKKVEPKSCDKTHTCPPCPAPEAAGAPSVFLFPPKPKDTLMISRTPEVTCVVVDVSHEDPEVKFNWYVDGVEVHNAKTKPREEQYNSTYRVVSVLTVLHQDWLNGKEYKCKVSNKALPAPIEKTISKAKGQPREPQVYTLPPSREEMTKNQVSLTCLVKGFYPSDIAVEWESNGQPENNYKTTPPVLDSDGSFFLYSKLTVDKSRWQQGNVFSCSVMHEALHNHYTQKSLSLSPGGGGGSAPTSSSTKKTQLQLEHLLLDLQMILNGINNYKNPKLTRMLTFKFYMPKKATELKHLQCLEEELKPLEEALNLAPSKNFHLRPRDLISDINVIVLELKGSETTFMCEYADETATIVEFINRWITFSQSIISTLT
light: DIQMTQSPSSLSASVGDRVTITCRASQSVSRSLAWYQQKPGKAPKLLIYAASSLQSGVPSRFSGSGSGTDFTLTISSLQPEDFATYYCQQYKSYPVTFGQGTKVEIKRTVAAPSVFIFPPSDEQLKSGTASVVCLLNNFYPREAKVQWKVDNALQSGNSQESVTEQDSKDSTYSLSSTLTLSKADYEKHKVYACEVTHQGLSSPVTKSFNRGEC
notes: also called MIAB133-001
Question: How did the Insulin polyreactivity score (Insulin) turn out when B8 was run?
Answer: 13.2

B9: MIAB136 (antibody, human IgG1, kappa)
heavy: B8 heavy with F32Y, W33A, H35S
light: B8 light
Question: How did the Insulin polyreactivity score (Insulin) turn out when B9 was run?
Answer: 75.4

B10: MIAB137 (antibody, human IgG1, kappa)
heavy: B8 heavy with S31D, I48V, Y50A, D54S, S55G, Y57S, N59Y
light: B8 light
Question: With B10 as the binder, how does the Insulin polyreactivity score (Insulin) read?
Answer: 67.3

B11: MIAB145 (antibody, human IgG1, kappa)
heavy: B8 heavy with S31D
light: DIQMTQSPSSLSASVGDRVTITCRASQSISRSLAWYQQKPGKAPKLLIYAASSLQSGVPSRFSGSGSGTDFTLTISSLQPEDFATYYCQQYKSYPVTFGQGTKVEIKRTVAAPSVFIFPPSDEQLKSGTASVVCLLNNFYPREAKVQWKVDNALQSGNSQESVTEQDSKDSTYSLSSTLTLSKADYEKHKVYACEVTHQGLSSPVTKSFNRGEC
notes: also called MIAB145-001
Question: How did the Insulin polyreactivity score (Insulin) turn out when B11 was run?
Answer: 4.58

B12: MIAB146 (antibody, human IgG1, kappa)
heavy: B8 heavy with S31D
light: B8 light with R31S
notes: also called MIAB146-001
Question: How did the Insulin polyreactivity score (Insulin) turn out when B12 was run?
Answer: 2.61

B13: MIAB147 (antibody, human IgG1, kappa)
heavy: B8 heavy with S31D
light: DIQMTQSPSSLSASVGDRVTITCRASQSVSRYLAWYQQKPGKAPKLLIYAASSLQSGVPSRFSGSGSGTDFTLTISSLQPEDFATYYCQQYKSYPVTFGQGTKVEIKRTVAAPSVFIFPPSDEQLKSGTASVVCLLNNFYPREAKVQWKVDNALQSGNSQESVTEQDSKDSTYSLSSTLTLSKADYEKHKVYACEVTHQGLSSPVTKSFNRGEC
notes: also called MIAB147-001
Question: With B13 as the binder, how does the Insulin polyreactivity score (Insulin) read?
Answer: 3.81

B14: MIAB149 (antibody, human IgG1, kappa)
heavy: B8 heavy with S31D
light: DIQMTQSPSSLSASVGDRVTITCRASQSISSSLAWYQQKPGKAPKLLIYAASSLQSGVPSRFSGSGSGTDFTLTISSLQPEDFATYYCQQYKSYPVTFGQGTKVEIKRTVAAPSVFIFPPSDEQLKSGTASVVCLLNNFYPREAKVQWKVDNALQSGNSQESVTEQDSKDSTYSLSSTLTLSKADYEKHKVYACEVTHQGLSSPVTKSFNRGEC
notes: also called MIAB149-001
Question: For B14, which Insulin polyreactivity score (Insulin) is on record?
Answer: 3.53

B15: PMAB233 (antibody, human IgG1, kappa, V domains shown)
VH: QVQLVQSGAEVKKPGASVKVSCKASGYTFTTYYMHWVRQAPGQGLEWMGIIQPSGGSTSYAQKFQGRVTMTRDTSTSTVYMELSSLRSEDTAVYYCASGWVYWGQGTLVTVSS
VL: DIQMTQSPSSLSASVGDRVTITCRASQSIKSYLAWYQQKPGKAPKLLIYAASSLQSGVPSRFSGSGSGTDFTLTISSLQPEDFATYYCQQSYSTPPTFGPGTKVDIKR
Question: For B15, which IC50 (human PD-1 [3]) is on record?
Answer: 85.9 nM

B16: PMAB234 (antibody, human IgG1, kappa, V domains shown)
VH: B15 VH
VL: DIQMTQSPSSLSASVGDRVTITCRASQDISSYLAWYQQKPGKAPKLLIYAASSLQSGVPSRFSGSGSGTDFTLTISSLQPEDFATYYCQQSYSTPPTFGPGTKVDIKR
Question: With B16 as the binder, how does the IC50 (human PD-1 [3]) read?
Answer: 28.1 nM

B17: PMAB235 (antibody, human IgG1, kappa, V domains shown)
VH: B15 VH
VL: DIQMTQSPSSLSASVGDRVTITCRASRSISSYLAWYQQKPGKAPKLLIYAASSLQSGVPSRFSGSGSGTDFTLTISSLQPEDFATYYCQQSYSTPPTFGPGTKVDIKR
Question: Which IC50 (human PD-1 [3]) does the source give for B17 here?
Answer: 23.2 nM

B18: PMAB237 (antibody, human IgG1, kappa, V domains shown)
VH: B15 VH
VL: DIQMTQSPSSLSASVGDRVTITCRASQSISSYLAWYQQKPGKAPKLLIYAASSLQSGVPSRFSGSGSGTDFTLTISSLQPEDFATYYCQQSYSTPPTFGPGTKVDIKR
Question: With B18 as the binder, how does the IC50 (human PD-1 [3]) read?
Answer: 15.9 nM

B19: PMAB238 (antibody, human IgG1, kappa, V domains shown)
VH: B15 VH with T28S, T31S
VL: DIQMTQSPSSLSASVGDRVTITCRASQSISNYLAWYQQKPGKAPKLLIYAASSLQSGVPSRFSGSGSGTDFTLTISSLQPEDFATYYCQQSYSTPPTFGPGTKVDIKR
Question: For B19, which IC50 (human PD-1 [3]) is on record?
Answer: 36.4 nM

B20: PMAB239 (antibody, human IgG1, kappa, V domains shown)
VH: B15 VH with T28S, T31S
VL: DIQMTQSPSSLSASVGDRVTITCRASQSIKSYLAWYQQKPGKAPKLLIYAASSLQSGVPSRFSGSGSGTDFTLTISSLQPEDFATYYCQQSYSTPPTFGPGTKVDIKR
Question: For B20, which IC50 (human PD-1 [3]) is on record?
Answer: 44.7 nM

B21: PMAB240 (antibody, human IgG1, kappa, V domains shown)
VH: B15 VH with T28S, T31S
VL: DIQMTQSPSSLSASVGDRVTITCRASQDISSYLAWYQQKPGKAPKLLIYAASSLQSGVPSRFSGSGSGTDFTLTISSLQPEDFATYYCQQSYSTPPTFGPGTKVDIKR
Question: For B21, which IC50 (human PD-1 [3]) is on record?
Answer: 39 nM

B22: PMAB241 (antibody, human IgG1, kappa, V domains shown)
VH: B15 VH with T28S, T31S
VL: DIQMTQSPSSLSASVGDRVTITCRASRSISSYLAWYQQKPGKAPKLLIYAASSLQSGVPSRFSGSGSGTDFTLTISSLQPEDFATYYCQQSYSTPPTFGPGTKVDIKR
Question: Which IC50 (human PD-1 [3]) does the source give for B22 here?
Answer: 46.4 nM

B23: PMAB242 (antibody, human IgG1, kappa, V domains shown)
VH: B15 VH with T28S, T31S
VL: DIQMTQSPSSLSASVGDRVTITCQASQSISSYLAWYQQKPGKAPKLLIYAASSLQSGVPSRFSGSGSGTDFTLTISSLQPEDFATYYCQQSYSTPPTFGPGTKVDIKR
Question: How did the IC50 (human PD-1 [3]) turn out when B23 was run?
Answer: 30.6 nM

B24: PMAB243 (antibody, human IgG1, kappa, V domains shown)
VH: B15 VH with T28S, T31S
VL: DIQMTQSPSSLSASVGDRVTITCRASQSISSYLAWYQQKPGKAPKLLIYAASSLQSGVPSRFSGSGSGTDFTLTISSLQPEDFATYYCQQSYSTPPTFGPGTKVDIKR
Question: With B24 as the binder, how does the IC50 (human PD-1 [3]) read?
Answer: 40.7 nM

B25: PMAB244 (antibody, human IgG1, kappa, V domains shown)
VH: B15 VH with T28S
VL: DIQMTQSPSSLSASVGDRVTITCQASRDIKNYLAWYQQKPGKAPKLLIYAASSLQSGVPSRFSGSGSGTDFTLTISSLQPEDFATYYCQQSYSTPPTFGPGTKVDIKR
Question: Which IC50 (human PD-1 [3]) does the source give for B25 here?
Answer: 258 nM

B26: PMAB214 (bispecific antibody, human IgG1, kappa)
heavy: QVQLVQSGAEVKKPGASVKVSCKASGYTFSDHYMHWVRQAPGQGLEWMGTIAPSGGRTSYAQKFQGRVTMTRDTSTSTVYMELSSLRSEDTAVYYCAADNGHASGWLYYYGMDVWGQGTTVTVSSASTKGPSVFPLAPSSKSTSGGTAALGCLVKDYFPEPVTVSWNSGALTSGVHTFPAVLQSSGLYSLSSVVTVPSSSLGTQTYICNVNHKPSNTKVDKKVEPKSCDKTHTCPPCPAPEAAGAPSVFLFPPKPKDTLMISRTPEVTCVVVDVSHEDPEVKFNWYVDGVEVHNAKTKPREEQYNSTYRVVSVLTVLHQDWLNGKEYKCKVSNKALPAPIEKTISKAKGQPREPQVYTLPPSREEMTKNQVSLTCLVKGFYPSDIAVEWESNGQPENNYKTTPPVLDSDGSFFLYSKLTVDKSRWQQGNVFSCSVMHEALHNHYTQKSLSLSPGGGGGSGGGGSGGGGSEVQLLESGGGLVQPGGSLRLSCAASGFTFSDFWMHWVRQAPGKGLEWISYISGDSGYTNYADSVKGRFTISRDNSKNTLYLQMNSLRAEDTAVYYCARDRPYYYYMDVWGKGTTVTVSSGGGGSGGGGSGGGGSGGGGSDIQMTQSPSSLSASVGDRVTITCRASQSVSRSLAWYQQKPGKAPKLLIYAASSLQSGVPSRFSGSGSGTDFTLTISSLQPEDFATYYCQQYKSYPVTFGQGTKVEIK
light: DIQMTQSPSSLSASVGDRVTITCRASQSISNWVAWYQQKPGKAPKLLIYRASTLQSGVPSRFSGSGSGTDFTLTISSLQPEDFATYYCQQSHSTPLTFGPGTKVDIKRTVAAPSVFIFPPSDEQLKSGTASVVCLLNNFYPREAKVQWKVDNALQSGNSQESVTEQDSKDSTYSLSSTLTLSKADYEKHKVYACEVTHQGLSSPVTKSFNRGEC
Question: Which Kd (human PD-1 [4]) does the source give for B26 here?
Answer: 8050 nM
